Consider 5 molecules from patent US20230416363A1 (KADMON, published 2023).

Changes are numbered by the printed parent chain.

Experiment [1] deals with T1, mouse PD-1 expressed on cells (mouse, UniProt Q02242 25-288).
T1 sequence (looked up): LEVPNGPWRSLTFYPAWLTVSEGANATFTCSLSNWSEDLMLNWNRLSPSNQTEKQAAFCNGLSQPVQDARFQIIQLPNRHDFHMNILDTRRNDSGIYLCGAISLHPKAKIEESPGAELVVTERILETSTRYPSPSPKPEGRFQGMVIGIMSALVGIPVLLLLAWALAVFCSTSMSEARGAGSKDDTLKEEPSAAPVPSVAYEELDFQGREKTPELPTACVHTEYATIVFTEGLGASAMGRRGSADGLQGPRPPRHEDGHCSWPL
Nature of the experiment: cell-based or functional assay.

Experiment [2] addresses T2, mPD-1-his (mouse, UniProt Q02242 25-167, limits assumed).
T2 construct: domain: IgV domain
T2 sequence: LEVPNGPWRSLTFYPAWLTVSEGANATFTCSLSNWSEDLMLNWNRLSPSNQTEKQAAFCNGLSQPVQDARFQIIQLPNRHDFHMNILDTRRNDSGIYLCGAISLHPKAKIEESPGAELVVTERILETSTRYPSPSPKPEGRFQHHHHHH
Briefly: kinetics (Ka/Kd/KD; method not named), mPD-1-his.

Experiment [3] concerns the target T1, mouse PD-1 expressed on cells. Nature of the experiment: flow cytometry on mPD-1-HEK293 cells.
Experiment [4] concerns the target T3, mPD1 (soluble, ELISA of Examples 20 and 24) (mouse, UniProt Q02242 25-167, limits assumed).
T3 construct: also called Biotin-mPD1
T3 sequence (looked up): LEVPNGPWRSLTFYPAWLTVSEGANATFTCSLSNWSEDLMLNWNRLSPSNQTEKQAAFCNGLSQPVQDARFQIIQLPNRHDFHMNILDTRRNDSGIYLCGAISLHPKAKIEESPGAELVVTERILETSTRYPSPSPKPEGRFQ
Briefly: competition ELISA, blocking of mPD-L1 binding to mPD-1. For orientation: ELISA stands for enzyme-linked immunosorbent assay.

Experiment [5] concerns the target T4, mPD-1-Fc (mouse; human, UniProt Q02242 25-167, limits assumed).
T4 construct: domain: IgV domain; not shown: human IgG1 Fc
T4 sequence (looked up): T3 sequence (looked up)
Nature of the experiment: kinetics, mPD-1-Fc (off rate outside the machine limit).

Experiment [6] has as its target T3, mPD1 (soluble, ELISA of Examples 20 and …). Nature of the experiment: ELISA, dose-response binding to mPD-1.
Experiment [7] addresses T2, mPD-1-his. Briefly: SPR Biacore, mPD1-his. In general terms: SPR reads the build-up and loss of mass on a sensor chip optically.
The target of experiment [8] is T3, mPD1 (soluble, ELISA of Examples 20 and …). Briefly: ELISA, mPD1.
The target in experiment [9] is T5, hPD1 (soluble, ELISA of Example 20) (human, UniProt Q15116 25-167, limits assumed). Nature of the experiment: ELISA, hPD1.
Experiment [10] concerns the target T1, mouse PD-1 expressed on cells. Nature of the experiment: flow cytometry, mPD1-293 cells. In general terms: A flow cytometer gives signals particle by particle.
Experiment [11] deals with T6, human PD-1 expressed on cells (human, UniProt Q15116 25-288).
T6 construct: whole, on cells
Briefly: flow cytometry, hPD1-293 cells.

For experiment [12], the target named is T3, mPD1 (soluble, ELISA of Examples 20 and …). Nature of the experiment: ELISA, biotin-mPD1 on streptavidin.
For experiment [13] the target is unchanged. Briefly: blocking ELISA, mPD1 to mPDL1.
Experiment [14] deals with T4, mPD-1-Fc. Briefly: SPR Biacore, mPD1-Fc.
Experiment [15] deals with T5, hPD1 (soluble, ELISA of Example 20). Nature of the experiment: blocking ELISA, hPD1 to hPDL1.
Experiment [16] addresses T7, hPD-1-Fc (human, UniProt Q15116 25-167).
T7 construct: domain: IgV domain; also called human PD-1-Fc; not shown: human IgG1 Fc
Nature of the experiment: SPR Biacore, hPD1-Fc.

Experiment [17] deals with T1, mouse PD-1 expressed on cells. Briefly: flow cytometry, mPD1-eff cells.

T7 sequence (Q15116 25-167 limits assumed): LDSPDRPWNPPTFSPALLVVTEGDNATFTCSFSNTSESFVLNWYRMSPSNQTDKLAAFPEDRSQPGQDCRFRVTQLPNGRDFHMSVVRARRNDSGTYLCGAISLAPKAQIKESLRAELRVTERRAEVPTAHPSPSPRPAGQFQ
T5 sequence (Q15116 25-167 limits assumed): as above
T6 sequence (Q15116 25-288): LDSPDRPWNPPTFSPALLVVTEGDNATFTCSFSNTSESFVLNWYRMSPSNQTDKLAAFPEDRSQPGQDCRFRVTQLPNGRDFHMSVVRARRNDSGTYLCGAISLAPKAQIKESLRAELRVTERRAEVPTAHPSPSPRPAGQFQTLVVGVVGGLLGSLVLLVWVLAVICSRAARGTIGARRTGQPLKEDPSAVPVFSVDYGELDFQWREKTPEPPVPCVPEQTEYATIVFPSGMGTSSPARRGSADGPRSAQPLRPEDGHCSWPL

B1: 2C-m3A7/IL-15 (other)
light: DIQMTQSPSSLSASVGDRVTITCRASRSISNWLAWYQQKPGKAPKLLIYAASSLQSGVPSRFSGSGSGTDFTLTISSLQPEDFATYYCQQSYSAPVTFGQGTKVEIKRADAAPTVSIFPPSSEQLTSGGASVVCFLNNFYPKDINVKWKIDGSERQNGVLNSWTDQDSKDSTYSMSSTLTLTKDEYERHNSYTCEATHKTSTSPIVKSFNRNEC
heavy: QVQLVQSGAEVKKPGASVKVSCKASGHTFTSYYIHWVRQAPGQGLEWMGIINPSGGSTSYAQKFQGRVTMTRDTSTSTVYMELSSLRSEDTAVYYCARDRAYGGAGDYWGQGTLVTVSSAKTTAPSVYPLAPVCGDTTGSSVTLGCLVKGYFPEPVTLTWNSGSLSSGVHTFPAVLQSDLYTLSSSVTVTSSTWPSQSITCNVAHPASSTKVDKKIEPRGPTIKPCPPCKCPAPNAAGGPSVFIFPPKIKDVLMISLSPIVTCVVVDVSEDDPDVQISWFVNNVEVHTAQTQTHREDYNSTLRVVSALPIQHQDWMSGKEFKCKVNNKDLGAPIERTISKPKGSVRAPQVYVLPPPEEEMTKKQVTLTCMVTDFMPEDIYVEWTNNGKTELNYKNTEPVLDSDGSYFMYSKLRVEKKNWVERNSYSCSVVHEGLHNHHTTKSFSRTPGSCPPPVSIEHADIRVKNYSVNSRERYVCNSGFKRKAGTSTLIECVINKNTNVAHWTTPSLKCIRDPALVHQRPAPPSGGSGGGGSGGGSGGGGSLQNWIDVRYDLEKIESLIQSIHIDTTLYTDSDFHPSCKVTAMNCFLLELQVILHEYSNMTLNETVRNVLYLANSTLSSNKNVAESGCKECEELEEKTFTEFLQSFIRIVQMFINTS
notes: antibody-cytokine fusion
A word on the EC50 (read off the curve): it is the concentration giving half of the maximal effect. Read a low EC50 (read off the curve) as greater potency. Broadly, the Kd is the equilibrium constant for the complex coming apart. A high value points to a looser complex. As to B1, the results for the “EC50 (read off the curve)” value in experiment [1], in experiment [3] and in experiment [6] were approximately 0.7 nM, approximately 1 nM and approximately 0.2 nM, respectively. Also, the Kd in [2] is 0.247 nM; in experiment [5], 0.0593 nM. For the same molecule, the “IC50 (read off the curve)” value in [4] was approximately 0.2 nM.

B2: 1N-m3A7/IL-15 (other)
light: B1 light
heavy 1: QVQLVQSGAEVKKPGASVKVSCKASGHTFTSYYIHWVRQAPGQGLEWMGIINPSGGSTSYAQKFQGRVTMTRDTSTSTVYMELSSLRSEDTAVYYCARDRAYGGAGDYWGQGTLVTVSSAKTTAPSVYPLAPVCGDTTGSSVTLGCLVKGYFPEPVTLTWNSGSLSSGVHTFPAVLQSDLYTLSSSVTVTSSTWPSQSITCNVAHPASSTKVDKKIEPRGPTIKPCPPCKCPAPNAAGGPSVFIFPPKIKDVLMISLSPIVTCVVVDVSEDDPDVQISWFVNNVEVHTAQTQTHREDYNSTLRVVSALPIQHQDWMSGKEFKCKVNNKDLGAPIERTISKPKGSVRAPQVYVYPPPEEEMTKKQVTLTCMVTDFMPEDIYVEWTNNGKTELNYKNTEPVLDSDGSYAMVSKLRVEKKNWVERNSYSCSVVHEGLHNHHTTKSFSRTPGK
heavy 2: ITCPPPVSIEHADIRVKNYSVNSRERYVCNSGFKRKAGTSTLIECVINKNTNVAHWTTPSLKCIRDPALVHQRPAPPSGGSGGGGSGGGSGGGGSLQNWIDVRYDLEKIESLIQSIHIDTTLYTDSDFHPSCKVTAMNCFLLELQVILHEYSNMTLNETVRNVLYLANSTLSSNKNVAESGCKECEELEEKTFTEFLQSFIRIVQMFINTSGGGGSGGGGSGGGGSGGGGSGGGGSGGGGSQVQLVQSGAEVKKPGASVKVSCKASGHTFTSYYIHWVRQAPGQGLEWMGIINPSGGSTSYAQKFQGRVTMTRDTSTSTVYMELSSLRSEDTAVYYCARDRAYGGAGDYWGQGTLVTVSSAKTTAPSVYPLAPVCGDTTGSSVTLGCLVKGYFPEPVTLTWNSGSLSSGVHTFPAVLQSDLYTLSSSVTVTSSTWPSQSITCNVAHPASSTKVDKKIEPRGPTIKPCPPCKCPAPNAAGGPSVFIFPPKIKDVLMISLSPIVTCVVVDVSEDDPDVQISWFVNNVEVHTAQTQTHREDYNSTLRVVSALPIQHQDWMSGKEFKCKVNNKDLGAPIERTISKPKGSVRAPQVYVLPPPEEEMTKKQVTLLCMVTDFMPEDIYVEWTNNGKTELNYLNWEPVLDSDGSYFMYSKLRVEKKNWVERNSYSCSVVHEGLHNHHTTKSFSRTPGK
notes: antibody-cytokine fusion
As to B2, the “EC50 (read off the curve)” value in experiment [1] was approximately 0.8 nM; in experiment [3], approximately 0.8 nM; in [6], approximately 0.2 nM. The Kd turned out to be 0.457 nM in [2] and 0.0878 nM in [5]. The “IC50 (read off the curve)” value in [4] is approximately 0.3 nM.

B3: 2N-m3A7/IL-15 (other)
light: B1 light
heavy: B2 heavy 2 with L609T, L635K, W637T
notes: antibody-cytokine fusion
In the case of B3, the results for the “EC50 (read off the curve)” value in [1], in [3] and in [6] were approximately 2 nM, approximately 1 nM and approximately 0.3 nM, respectively. The values for the Kd in experiment [2] and in experiment [5] were 0.283 nM and 0.00909 nM, respectively. Also, in experiment [4], the “IC50 (read off the curve)” value is approximately 0.3 nM.

B4: 1C-m3A7/IL-15 (other)
light: B1 light
heavy 1: B2 heavy 1
heavy 2: B1 heavy with T368L, K394L, T396W
notes: antibody-cytokine fusion
With B4, the “EC50 (read off the curve)” value in [1] is approximately 0.6 nM; in experiment [3], approximately 0.7 nM; in experiment [6] it was approximately 0.1 nM. Also, the Kd came to 0.296 nM in [2] and 0.0927 nM in experiment [5]. Further, in [4], the “IC50 (read off the curve)” value was approximately 0.3 nM.

B5: m2A1 (antibody, V domains shown)
VH: QVQLVQSGAEVKKPGASVKVSCKASGHTFTSYYIHWVRQAPGQGLEWMGIINPSGGSTSYAQKFQGRVTMTRDTSTSTVYMELSSLRSEDTAVYYCARDRAYGGAGDYWGQGTLVTVSS
VL: DIQMTQSPSSLSASVGDRVTITCRASRGISSWLAWYQQKPGKAPKLLIYAASSLQSGVPSRFSGSGSGTDFTLTISSLQPEDFATYYCQQSYSPPWTFGQGTKVEIK
notes: R3A9 derivative; also called m2AM (apparent misprint)
As a reminder, the koff is the first-order rate constant of dissociation. A low value points to slow dissociation. What is called kon is the second-order rate constant of association. One may read the EC50 as the concentration giving half of the maximal effect. Read a high EC50 as a less potent agent. The IC50 is the concentration at which inhibition is half-maximal. A lower IC50 goes with higher potency. Consider B5, for which the Kd in experiment [7] came to 2.83 nM; in [14], 2.73 nM; in experiment [16], 1.67 nM. For the same molecule, the values for the koff in experiment [7], in experiment [14] and in [16] were 0.00107 s⁻¹, 0.000905 s⁻¹ and 0.000401 s⁻¹, respectively. The values for the kon in experiment [7], in [14] and in experiment [16] were 375000 M⁻¹ s⁻¹, 333000 M⁻¹ s⁻¹ and 240000 M⁻¹ s⁻¹, respectively. Also, the EC50 in experiment [8] stood at 0.304 nM; in experiment [9], 0.146 nM; in experiment [10], 0.433 nM; in experiment [11], 0.987 nM; in experiment [12], 0.14 nM; in experiment [17], 0.253 nM. In addition, the figures for the IC50 in experiment [13] and in experiment [15] were 0.442 nM and 6.01 nM, respectively.
